Experimental data: patent US20240287196A1 (published 2024)
Like-named read-outs stand apart in the source and are kept apart here.

T1: human ALK7-Fc comprising protein (human, UniProt Q8NER5 22-113)
T1 construct: also called hALK7-Fc; not shown: Fc part and any linker
T1 sequence: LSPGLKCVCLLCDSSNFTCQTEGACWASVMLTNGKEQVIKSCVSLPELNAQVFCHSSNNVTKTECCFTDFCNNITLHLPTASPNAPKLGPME

T2: rat Alk7-Fc comprising protein (rat, UniProt P70539 26-113)
T2 construct: not shown: Fc part and any linker
T2 sequence: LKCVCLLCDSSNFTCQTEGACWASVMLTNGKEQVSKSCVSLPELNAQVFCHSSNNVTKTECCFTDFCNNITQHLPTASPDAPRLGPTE

T3: ALK7-Fc comprising protein (Homo sapiens (Human), UniProt Q8NER5 21-113)
T3 construct: not shown: The Fc part and any linker of the fusion; The construct's exact ALK7 limits are not seen either
T3 sequence: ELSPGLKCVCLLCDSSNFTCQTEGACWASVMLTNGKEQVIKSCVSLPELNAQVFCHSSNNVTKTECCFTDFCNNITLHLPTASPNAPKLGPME

T4: ALK7 on differentiated 3T3-L1 adipocytes (UniProt Q8K348 26-493, limits assumed)
T4 sequence (looked up): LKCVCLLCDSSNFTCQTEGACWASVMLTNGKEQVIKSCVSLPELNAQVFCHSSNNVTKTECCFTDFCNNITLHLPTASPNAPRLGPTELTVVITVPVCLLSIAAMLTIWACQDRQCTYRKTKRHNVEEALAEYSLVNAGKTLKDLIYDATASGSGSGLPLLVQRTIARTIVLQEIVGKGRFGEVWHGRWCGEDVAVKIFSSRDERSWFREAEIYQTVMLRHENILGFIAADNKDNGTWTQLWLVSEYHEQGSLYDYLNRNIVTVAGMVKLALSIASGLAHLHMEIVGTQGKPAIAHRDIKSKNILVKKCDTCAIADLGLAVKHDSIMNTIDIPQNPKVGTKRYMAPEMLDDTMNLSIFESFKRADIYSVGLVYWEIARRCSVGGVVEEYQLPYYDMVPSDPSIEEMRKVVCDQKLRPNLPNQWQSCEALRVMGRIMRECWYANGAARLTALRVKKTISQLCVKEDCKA


Tests used:
[1] = molecular target: T1, human ALK7-Fc comprising protein; test: SPR (Biacore T100/T200); antibody captured on FAB chip, ALK7-Fc comprising protein as analyte; 1:1 model
Description: (§1) Experiments were performed using a Biacore T100/T200 biosensor (Biacore/GE Healthcare) at 25 and 37° C. ALK7 antibodies were captured on custom made FAB chip. A concentration series of ALK7-Fc comprising protein was injected over the flow cells at a flow rate of […]. To obtain kinetic rate constants the corrected data were fit to a 1:1 interaction model using BiaEvaluation software (GE Healthcare). The equilibrium binding constant KD was determined by the ratio of binding rate constants kd/ka.

[2] = molecular target: T2, rat Alk7-Fc comprising protein; test: as above
Description: as §1

[3] = molecular target: T3, ALK7-Fc comprising protein; test: SPR (Biacore T100/T200), 25 °C; antibody captured on FAB chip, ALK7-Fc comprising protein as analyte; 1:1 model
Description: as §1, with “comprisingprotein” for “comprising protein”, “kd/kₐ.” for “kd/ka.”

[4] = molecular target: T4, ALK7 on differentiated 3T3-L1 adipocytes; test: cell-based or functional assay
[5] = molecular target: T1, human ALK7-Fc comprising protein; test: SPR (Biacore T100/T200); antibody captured on FAB chip, ALK7-Fc comprising protein as analyte; 1:1 model; remark: listed apart in the source

| Kd [3] | koff [3] | kon [3] | Binder | also measured |
| --- | --- | --- | --- | --- |
| – | – | – | K01 (antibody, V domains shown, also called antibody K01) VH: not shown VL: DIQMTQSPSSLSASVGDRVTITCRASQSISSYLNWYQQKPGKAPKLLIYGASSLQSGVPSRFSGSGSGTDFTLTISSLQPEDFATYYCQQAYSFPWTFGGGIKVEIK | Kd [1]: 201 nM; koff [1]: 0.00916 s⁻¹; kon [1]: 45600 M⁻¹ s⁻¹; Kd [2]: 8.14 nM; koff [2]: 0.000139 s⁻¹; kon [2]: 17100 M⁻¹ s⁻¹ |
| 12.4 nM | 0.000291 s⁻¹ | 23500 M⁻¹ s⁻¹ | K02 (antibody, V domains shown, also called mAb K02; antibody K02) VH: QVQLVQSGAEVKKPGSSVKVSCKASGGTFSSSAIGWVRQAPGQGLEWMGGIWPIFGTALYAQKFQGRVTITADESTSTAYMELSSLRSEDTAVYYCARDPREYIHVFDIWGQGTMVTVSS VL: DIQMTQSPSSLSASVGDRVTITCRASQSISSYLNWYQQKPGKAPKLLIYGASSLQSGVPSRFSGSGSGTDFTLTISSLQPEDFATYYCQQAYSFPWTFGGGIKVEIK | – |
| 5.33 nM | 0.000126 s⁻¹ | 23600 M⁻¹ s⁻¹ | J02 (antibody, V domains shown, also called mAb J02; antibody J02) VH: EVQLLESGGGLVQPGGSLRLSCAASGFTFSVYAMSWVRQAPGKGLEWVSAISGSGDSTVYADSVKGRFTISRDNSKNTLYLQMNSLRAEDTAVYYCAKPSYQPIYWGQGTLVTVSS VL: DIQMTQSPSSVSASVGDRVTITCRASQGISSWLAWYQQKPGKAPKLLIYAASSLQSGVPSRFSGSGSGTDFTLTISSLQPEDFATYYCQQAASYPLTFGGGTKVEIK | – |
| – | – | – | L01 (antibody, V domains shown, also called antibody L01) VH: QVQLVQSGAEVKKPGSSVKVSCKASGGTFSSYAISWVRQAPGQGLEWMGSIIPIFGTANYAQKFQGRVTITADESTSTAYMELSSLRSEDTAVYYCARDPVGARYEVFDYWGQGTLVTVSS VL: EIVMTQSPATLSVSPGERATLSCRASQSVSSNLAWYQQKPGQAPRLLIYSASTRATGIPARFSGSGSGTEFTLTISSLQSEDFAVYYCQQANTFPLTFGGGTKVEIK | Kd [1]: 15.1 nM; kon [1]: 24300 M⁻¹ s⁻¹; Kd [2]: 22.9 nM; koff [2]: 0.000271 s⁻¹; kon [2]: 11800 M⁻¹ s⁻¹ |
| 0.44 nM | 1.21e-05 s⁻¹ | 27400 M⁻¹ s⁻¹ | L02 (antibody, V domains shown, also called mAb L02; antibody L02) VH: QVQLVQSGAEVKKPGASVKVSCKASGYTFAGYNMHWVRQAPGQGLEWVGIINPNSGWTNYAQKFQGRVTMTRDTSVSAAYMELSRLRSDDTAVYYCARDPVGARYEVFDYWGQGTLVTVSS VL: EIVMTQSPATLSVSPGERATLSCRASQSVSSALAWYQQKPGQAPRLLIYSAFTRASGIPARFSGSGSGTEFTLTISSLQSEDFAVYYCQQAWAFPLTFGGGTKVEIK | – |
| 0.33 nM | 1.27e-05 s⁻¹ | 38300 M⁻¹ s⁻¹ | C03 (antibody, human IgG1, kappa, V domains shown, also called mAb C03; antibody C03) VH: QLQLQESGPGLVKPSETLSLTCTVSGGSISSSAYYWAWIRQPPGKGLEWIGSIYLSGSTTYNPSLKSRVTISVDTSKNQFSLKLSSVTAADTAVYYCARDGRYQSRSPDYYYGMDVWGQGTTVTVSS VL: EIVLTQSPGTLSLSPGERATLSCKASQSVSSSYLAWYQQKPGQAPRLLIYGAFSRANGIPDRFSGSGSGTDFTLTISRLEPEDFAVYYCQQLVSYPFTFGGGTKVEIKR | – |
| – | – | – | G04 (antibody, V domains shown, also called antibody G04) VH: QVQLVQSGAEVKKPGSSVKVSCKASGGTFSSYAISWVRQAPGQGLEWMGGIIPIFGTASYAQKFQGRVTITADESTSTAYMELSSLRSEDTAVYYCARTPYYDSSGYLDVWGQGTMVTVSS VL: DIQMTQSPSSLSASVGDRVTITCQASQDISNYLNWYQQKPGKAPKLLIYDASNLATGVPSRFSGSGSGTDFTFTISSLQPEDIATYYCQQSLDLPPTFGGGTKVEIK | Increase in lipolysis activity (%) [4]: 45.8%; Kd [5]: 247 nM; koff [5]: 0.0222 s⁻¹; kon [5]: 89600 M⁻¹ s⁻¹ |
| 0.87 nM | 2.59e-05 s⁻¹ | 29900 M⁻¹ s⁻¹ | G05 (antibody, human IgG1, kappa, V domains shown, also called mAb G05; antibody G05) VH: QVQLVQSGAEVKKPGSSVKVSCKASGGTFSGQAISWVRQAPGQGLEWMGGIIPSFGTARYAQKFQGRVTITADESTSTAYMELSSLRSEDTAVYYCARTPYYDSSGYLDVWGQGTMVTVSS VL: DIQMTQSPSSLSASVGDRVTITCQASHDIDNYLNWYQQKPGKAPKLLIYYASNLKTGVPSRFSGSGSGTDFTFTISSLQPEDIATYYCQQSRASPPTFGGGTKVEIKR | – |
